Here are results for five substances from patent publication US8410061.

pIC50: −log10 of the molar value.

The target in assay [1] is Myc-tagged patched-1 on transiently transfected human embryonic kidney 293 (EBNA-293) cells. Description: FACS competition with Shh-Ig (5 nM) on 293 cells transfected with Myc-tagged patched-1.
The target of assay [2] is patched-1 of C3H10T1/2 cells (endogenous hedgehog receptor) (mouse (cell line C3H10T1/2 is stated to be mouse)) (UniProt Q61115). Description: cell-based or functional assay.
Sequence of patched-1 of C3H10T1/2 cells (endogenous hedgehog receptor) (mouse (cell line C3H10T1/2 is stated to be mouse)) (Q61115 whole entry): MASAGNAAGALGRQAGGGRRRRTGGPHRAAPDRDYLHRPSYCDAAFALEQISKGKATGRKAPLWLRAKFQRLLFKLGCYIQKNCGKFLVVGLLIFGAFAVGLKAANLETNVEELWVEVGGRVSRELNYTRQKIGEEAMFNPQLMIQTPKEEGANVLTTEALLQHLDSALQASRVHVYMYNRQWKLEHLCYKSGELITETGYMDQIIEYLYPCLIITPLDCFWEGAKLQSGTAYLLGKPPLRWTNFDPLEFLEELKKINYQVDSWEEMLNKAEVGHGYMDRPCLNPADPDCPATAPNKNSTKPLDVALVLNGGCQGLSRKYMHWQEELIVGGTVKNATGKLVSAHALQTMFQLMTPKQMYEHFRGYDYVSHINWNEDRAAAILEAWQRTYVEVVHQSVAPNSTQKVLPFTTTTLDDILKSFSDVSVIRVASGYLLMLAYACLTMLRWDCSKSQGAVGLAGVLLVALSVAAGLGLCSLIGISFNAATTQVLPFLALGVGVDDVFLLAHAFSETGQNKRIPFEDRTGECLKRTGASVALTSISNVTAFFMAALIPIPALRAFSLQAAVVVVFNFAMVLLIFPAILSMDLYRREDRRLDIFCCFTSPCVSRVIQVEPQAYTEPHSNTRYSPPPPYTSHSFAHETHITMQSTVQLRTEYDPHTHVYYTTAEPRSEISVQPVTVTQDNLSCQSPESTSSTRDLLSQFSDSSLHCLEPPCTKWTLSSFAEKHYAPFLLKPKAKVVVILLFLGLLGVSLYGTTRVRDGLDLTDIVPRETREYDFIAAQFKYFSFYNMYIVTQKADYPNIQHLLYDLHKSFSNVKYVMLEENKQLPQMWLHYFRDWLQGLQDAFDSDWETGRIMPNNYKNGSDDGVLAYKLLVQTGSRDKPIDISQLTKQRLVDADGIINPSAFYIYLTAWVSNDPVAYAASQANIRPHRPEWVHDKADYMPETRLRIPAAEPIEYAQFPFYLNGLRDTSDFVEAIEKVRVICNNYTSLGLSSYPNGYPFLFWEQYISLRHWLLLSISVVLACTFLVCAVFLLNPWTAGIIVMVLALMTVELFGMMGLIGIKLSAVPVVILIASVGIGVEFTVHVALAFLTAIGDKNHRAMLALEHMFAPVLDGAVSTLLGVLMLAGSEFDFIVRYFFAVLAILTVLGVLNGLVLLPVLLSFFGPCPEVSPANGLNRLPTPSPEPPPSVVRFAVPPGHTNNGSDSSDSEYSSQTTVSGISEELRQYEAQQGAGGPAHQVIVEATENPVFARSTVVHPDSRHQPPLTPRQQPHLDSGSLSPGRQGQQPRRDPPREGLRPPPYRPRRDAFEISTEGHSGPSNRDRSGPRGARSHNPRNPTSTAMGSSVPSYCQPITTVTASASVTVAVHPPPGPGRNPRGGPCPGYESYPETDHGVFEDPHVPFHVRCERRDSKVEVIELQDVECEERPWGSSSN

Sequence of Myc-tagged patched-1 on transiently transfected human embryonic kidney 293 (EBNA-293) cells (Q61115 whole entry): as above

As a reminder, the pIC50 is −log10 of the IC50, conventionally taken in molar units. A low value points to a high IC50. In assay [1], “Shh (C1S), Sonic hedgehog N-terminal domain with the N-terminal cysteine replaced by serine (from UniProt Q15465 25-197) (ligand)” had a pIC50 of 9.00. The substance further showed a block of AP induction by human Shh in C3H10T1/2 cells, IC50 in assay [2] of 500000 nM.

In assay [2], “Shh (N-5), Sonic hedgehog variant lacking residues CGPGR from the N-terminus (from UniProt Q15465 29-197) (ligand)” registered a block of AP activity induced by mature Shh in C3H10T1/2 cells, IC50 of 80 nM.

In assay [2], “Shh (N-9/C-3), Sonic hedgehog variant lacking … from the N-terminus and SGG from the C-terminus (from UniProt Q15465 33-194) (ligand)” gave a block of AP activity induced by mature Shh in C3H10T1/2 cells, IC50 of 80 nM.

“Shh (N-10), Sonic hedgehog variant lacking the first 10 N-terminal amino acids (from UniProt Q15465 34-197) (ligand)” returned a block of AP induction by mature Shh (2.5 ug/ml) in C3H10T1/2 cells, IC50 in assay [2] of 250 nM.

“human mature Sonic hedgehog N-terminal domain (from UniProt Q15465 24-197) (ligand)” showed a pIC50 in assay [1] of 8.46.
